Source: paper PMC5454382 (Nature Communications, 2017)

What was measured:
His-tagged LDHA [1] = target: T1, His-tagged LDHA (human, UniProt P00338 1-332); test: pull-down; GST pull-down: GST-tagged protein on glutathione-sepharose resin incubated with His-tagged protein, 4 °C, 3 h; settings: both partners purified
His-tagged LDHA [2] = target: T1, His-tagged LDHA; test: pull-down; recombinant proteins from E. coli (Supplementary Fig. 3d,e); which partner was immobilised is not given; settings: both partners purified

binding result (His-tagged LDHA [1])	binding result (His-tagged LDHA [2])	Binder
binds	–	GST-tagged hCINAP (enzyme, human, UniProt Q9Y3D8 1-172, looked up, hCINAP (adenylate kinase 6, AK6), human cDNA, wild type; Vector pGEX4T1 is named in the plasmids section; also called GST-hCINAP; glutathione S-transferase-tagged hCINAP; source: E. coli BL21(DE3), purified) MLLPNILLTGTPGVGKTTLGKELASKSGLKYINVGDLAREEQLYDGYDEEYDCPILDEDRVVDELDNQMREGGVIVDYHGCDFFPERWFHIVFVLRTDTNVLYERLETRGYNEKKLTDNIQCEIFQVLYEEATASYKEEIVHQLPSNKPEELENNVDQILKWIEQWIKDHNS
–	binds	GST-tagged hCINAP (H79G) (enzyme, human, UniProt Q9Y3D8 1-172, looked up, hCINAP (adenylate kinase 6, AK6), human cDNA, H79G mutant with impaired adenylate kinase activity; also called H79G mutant hCINAP; source: E. coli BL21(DE3), purified) MLLPNILLTGTPGVGKTTLGKELASKSGLKYINVGDLAREEQLYDGYDEEYDCPILDEDRVVDELDNQMREGGVIVDYGGCDFFPERWFHIVFVLRTDTNVLYERLETRGYNEKKLTDNIQCEIFQVLYEEATASYKEEIVHQLPSNKPEELENNVDQILKWIEQWIKDHNS
